Reference: patent US8765908B2, “Compositions for improving bone mass” (The UAB Research Foundation, priority 2010, dated 2014)
Residue numbers refer to the chain shown, from its start. Entries after “also recorded” stand apart in the source; their conditions may differ.

How the values were obtained:
[1] = target: T1, Myc-mRANK (RANK fragment with IVVY to IVAF inactivating mutation) (Mus musculus, UniProt O35305, V537A/Y538F); test: Co-immunoprecipitation with Myc-mRANK in 293T cells; type: binding; details: cotransfection with Myc-mRANK; IP anti-Myc, WB anti-HA
T1 construct: expressed in transfected cells; host or cells: 293T cells
T1 sequence (O35305 498-556 V537A/Y538F): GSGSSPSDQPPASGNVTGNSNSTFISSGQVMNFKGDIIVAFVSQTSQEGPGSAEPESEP
Method: (§1) 293T cells were cultured in DMEM containing 10% heat-inactivated fetal bovine serum (HI-FBS) and penicillin/streptomycin (culturing medium). Cells grown near confluence were lifted and replated at density of 5×10^6 cells/dish in 100-mm tissue culture dishes the day before transfection. Total 8 μg plasmid was transfected into 293T cells using Lipofectamine™ in combination of Plus® Reagent (Invitrogen). Briefly, 8 μg plasmid was mixed with 20 μl Plus®Reagent before addition of 350 μl DMEM. The mixture was incubated at RT for 15 min and then added with 380 μl freshly prepared Lipofectamine™ Reagent (Lipofectamine™ Reagent+350 μl DMEM). The complete transfection solution was further incubated at RT for 15 min before being added to one dish of 293T cells which was washed with DMEM twice immediately before the addition of the solution. The cells were incubated at 37° C. for 3 hrs before addition of 6.5 ml culturing medium and the incubation continued overnight. Next day, the medium containing the DNA/transfection reagents was replaced with fresh culturing medium. […]
Next, it was determined whether the IVVY (SEQ ID NO:4) motif in the RANK region is specifically responsible for interaction with RYBP. […] Cell lysates were coimmunoprecipitated with anti-Myc antibody and then the precipitates were analyzed by Western analysis with anti-HA antibody.

[2] = target: T2, RANK fragment 498-556 (Myc-RANK) (Mus musculus, UniProt O35305); test: Co-immunoprecipitation with Myc-RANK in 293T cells; type: binding; details: cotransfection with Myc-RANK in 293T cells; IP then Western blot
T2 construct: expressed in transfected cells; host or cells: 293T cells
T2 sequence (O35305 498-556): T1 sequence (O35305 498-556 V537A/Y538F) with A40V, F41Y
Method: as §1, with “overnight.” for “overnight. Next day, the medium containing the DNA/transfection reagents was replaced with fresh culturing medium.”
As such, the potential of RYBP as a signaling molecule interacting with the IVVY (SEQ ID NO:4) motif was examined to regulate osteoclastogenesis. […] It was then determined whether the interaction between the RANK fragment and RYBP seen in yeast also occurs in mammalian cells. the cDNA region encoding the bait was cloned into pCMV-Myc vector (BD Biosciences Clontech) to generate Myc-RANK (FIG. 1C). […]

interaction with IVVY-mutated RANK (co-IP band) [1]: failed to do so
Substance: HA-RYBP: full-length RYBP cDNA subcloned into pCMV-HA vector
interaction with RANK (co-IP band) [2]: gave rise to a positive band; also recorded: yielded a positive band
